# Reference: publication PMC7380208
# Biological target: Recombinant SARS-CoV-2 spike protein ectodomain, native glycosylation (SARS-CoV-2) (UniProt P0DTC2)
# Test: ELISA
substance,measurement,value
Flt3 Receptor Interacting Lectin (FRIL) from Lablab purpureus (from UniProt Q9ZTA9) (natural protein),lowest FRIL concentration at which binding was seen,10 ng/mL
